What all share (assay): peptide ELISA
Assay [1] addresses T1, FX activation peptide 12-mer … (human).
T1 sequence (peptide, C-terminally conjugated to biotin): DPTENPFDLLDF

Assay [2] concerns the target T2, FX activation peptide 12-mer … (human).
T2 sequence (peptide, C-terminally conjugated to biotin): LDPTENPFDLLD
This is another data set of the same source.

The target of assay [3] is T3, FX activation peptide 12-mer … (human).
T3 sequence (peptide, C-terminally conjugated to biotin): FDLLDFNQTQPE
This is another data set of the same source.

Assay [4] has as its target T4, FX activation peptide 12-mer … (human).
T4 sequence (peptide, C-terminally conjugated to biotin): PFDLLDFNQTQP
This is another data set of the same source.

In assay [5] the target is T5, FX activation peptide 12-mer … (human).
T5 sequence (peptide, C-terminally conjugated to biotin): PTENPFDLLDFN
The source holds these as a separate data set.

The target of assay [6] is T6, FX activation peptide 12-mer … (human).
T6 sequence (peptide, C-terminally conjugated to biotin): LLDFNQTQPERG
The source holds these as a separate data set.

Assay [7] deals with T7, FX activation peptide 12-mer … (human).
T7 sequence (peptide, C-terminally conjugated to biotin): ENPFDLLDFNQT
The source holds these as a separate data set.

In assay [8] the target is T8, FX activation peptide 12-mer … (human).
T8 sequence (peptide, C-terminally conjugated to biotin): NPFDLLDFNQTQ
The source holds these as a separate data set.

Assay [9] concerns the target T9, FX activation peptide 12-mer … (human).
T9 sequence (peptide, C-terminally conjugated to biotin): PDSITWKPYDAA
This is another data set of the same source.

Assay [10] deals with T10, FX activation peptide 12-mer … (human).
T10 sequence (peptide, C-terminally conjugated to biotin): TSSSGEAPDSIT
The source holds these as a separate data set.

Assay [11] addresses T11, FX activation peptide 12-mer … (human).
T11 sequence (peptide, C-terminally conjugated to biotin): DFNQTQPERGDN
This is another data set of the same source.

The target of assay [12] is T12, FX activation peptide 12-mer … (human).
T12 sequence (peptide, C-terminally conjugated to biotin): SSGEAPDSITWK
The source holds these as a separate data set.

In assay [13] the target is T13, FX activation peptide 12-mer … (human).
T13 sequence (peptide, C-terminally conjugated to biotin): DAADLDPTENPF
This is another data set of the same source.

Assay [14] deals with T14, FX activation peptide 12-mer … (human).
T14 sequence (peptide, C-terminally conjugated to biotin): PYDAADLDPTEN
This is another data set of the same source.

Assay [15] concerns the target T15, FX activation peptide 12-mer … (human).
T15 sequence (peptide, C-terminally conjugated to biotin): NQTQPERGDNNL
The source holds these as a separate data set.

The target of assay [16] is T16, FX activation peptide 12-mer … (human).
T16 sequence (peptide, C-terminally conjugated to biotin): SGEAPDSITWKP
The source holds these as a separate data set.

Assay [17] has as its target T17, FX activation peptide 12-mer … (human).
T17 sequence (peptide, C-terminally conjugated to biotin): YDAADLDPTENP
This is another data set of the same source.

The target in assay [18] is T18, FX activation peptide 12-mer … (human).
T18 sequence (peptide, C-terminally conjugated to biotin): VAQATSSSGEAP
This is another data set of the same source.

Assay [19] concerns the target T19, FX activation peptide 12-mer … (human).
T19 sequence (peptide, C-terminally conjugated to biotin): APDSITWKPYDA
This is another data set of the same source.

Assay [20] deals with T20, FX activation peptide 12-mer … (human).
T20 sequence (peptide, C-terminally conjugated to biotin): DSITWKPYDAAD
This is another data set of the same source.

Assay [21] deals with T21, FX activation peptide 12-mer … (human).
T21 sequence (peptide, C-terminally conjugated to biotin): EAPDSITWKPYD
This is another data set of the same source.

The target in assay [22] is T22, FX activation peptide 12-mer … (human).
T22 sequence (peptide, C-terminally conjugated to biotin): TENPFDLLDFNQ
The source holds these as a separate data set.

The target of assay [23] is T23, FX activation peptide 12-mer … (human).
T23 sequence (peptide, C-terminally conjugated to biotin): FNQTQPERGDNN
The source holds these as a separate data set.

In assay [24] the target is T24, FX activation peptide 12-mer … (human).
T24 sequence (peptide, C-terminally conjugated to biotin): SVAQATSSSGEA
This is another data set of the same source.

In assay [25] the target is T25, FX activation peptide 12-mer … (human).
T25 sequence (peptide, C-terminally conjugated to biotin): ATSSSGEAPDSI
This is another data set of the same source.

For assay [26], the target named is T26, FX activation peptide 12-mer … (human).
T26 sequence (peptide, C-terminally conjugated to biotin): ITWKPYDAADLD
This is another data set of the same source.

The target in assay [27] is T27, FX activation peptide 12-mer … (human).
T27 sequence (peptide, C-terminally conjugated to biotin): DLLDFNQTQPER
The source holds these as a separate data set.

Assay [28] concerns the target T28, FX activation peptide 12-mer … (human).
T28 sequence (peptide, C-terminally conjugated to biotin): SITWKPYDAADL
The source holds these as a separate data set.

Assay [29] addresses T29, FX activation peptide 12-mer … (human).
T29 sequence (peptide, C-terminally conjugated to biotin): GEAPDSITWKPY
This is another data set of the same source.

The target of assay [30] is T30, FX activation peptide 12-mer … (human).
T30 sequence (peptide, C-terminally conjugated to biotin): TWKPYDAADLDP
The source holds these as a separate data set.

The target of assay [31] is T31, FX activation peptide 12-mer … (human).
T31 sequence (peptide, C-terminally conjugated to biotin): DLDPTENPFDLL
The source holds these as a separate data set.

B1: Nb 729C08 (VHH, not shown: small tags and cut ends)
VHH: EVQLVESGGGVVQPGGSLRLSCAASGFTFSDYAMSWVRQAPGKGLEWVSGITGGGRTYYADSVKGRFTISRDNSKNTLYLQMNSLRPEDTALYYCAAAILTRTRRTYDYWGQGTLVTVSS
B1: the ELISA signal relative to background amounted to 1.95 in assay [1] and 1.58 in [2].

B2: Nb 729A04 (VHH, not shown: small tags and cut ends)
VHH: EVQLVESGGGVVQPGGSLRLSCAASGFTFSDYAMSWVRQAPGKGLEWVSGITSGGGRTYYADSVKGRFTISRDNSKNTLYLQMNSLRPEDTALYYCAAVRTLGLRGSYDYWGQGTLVTVSS
With B2, the figures for the ELISA signal relative to background in assay [3], in [4] and in assay [2] were 1.58, 1.41 and 1.91, respectively.

B3: Nb 730C03 (VHH, not shown: small tags and cut ends)
VHH: EVQLVESGGGVVQPGGSLRLSCVASGFTFSDYAMSWVRQAPGKGLEWVSGITSGSGRTYYADSVKGRFTISRDNSKNTVYLQMNSLRPEDTALYYCAAAILRGYRKTYDYWGQGTLVTVSS
For the molecule B3, the values for the ELISA signal relative to background in [1] and in assay [5] were 1.68 and 1.62, respectively.

B4: Nb 702C12 (VHH, not shown: small tags and cut ends)
VHH: EVQLVESGGGVVQPGGSLRLSCVASGRTFSRYAMGWFRQAPGKEREFVAAISRRGGSTNYADSVKGRFTISRDNSKNTVYLQMNSLRPEDTALYYCAADYSSGDGYLDYWGQGTLVTVSS
The molecule B4 showed an ELISA signal relative to background in [6] of 1.88.

B5: Nb 721E08 (VHH, not shown: small tags and cut ends)
VHH: EVQLVESGGGVVQPGGSLRLSCAASGRTFSTYSMGWFRQAPGKEREFVAAITRRGSRTYYADSVKGRFTISRDNSKNTVYLQMNSLRPEDTALYYCAADRRPADSYLDYWGQGTLVTVSS
As to B5, the ELISA signal relative to background came out at 2.88 in assay [7]; 3.01 in assay [3]; 2.28 in assay [8]; 2.4 in assay [9]; 2.2 in assay [10]; 2.25 in assay [11]. Also, the ELISA signal relative to background in assay [12] was 2.01; in assay [4], 2.5; in assay [6], 2.3; in assay [13] it was 2.3; in assay [14], 2.05; in [15] it was 2.02. For the same molecule, the ELISA signal relative to background was 2.15 in assay [16]; 2.21 in assay [17]; 2.27 in [1]; 2.13 in [18]; 2.29 in assay [19]; 2.18 in assay [20]. Also, the ELISA signal relative to background stood at 2.35 in assay [21]; 2.54 in [22]; 2.16 in [23]; 2.25 in [24]; 2.27 in [25]; 2.08 in assay [26]. The ELISA signal relative to background in assay [27] came out at 2.45; in [5], 2.35; in [28], 2.28; in assay [29] it was 2.26; in [30] it was 2.26; in [2], 2.29. For the same molecule, in assay [31], the ELISA signal relative to background is 2.48.

B6: Nb 701D07 (VHH, not shown: small tags and cut ends)
VHH: EVQLVESGGGVVQPGGSLRLSCAASGGTLSRYAMGWFRQAPGKEREFVAAITRRGSRTYYADSVKGRFTISRDNSKNTVYLQMNSLRPEDTALYYCAADLAPGDYALDYWGQGTLVTVSS
In the case of B6, the ELISA signal relative to background in assay [7] worked out at 1.27; in [8], 0.96; in [4] it was 1.13; in assay [1], 1.39; in [22], 1.44; in [5], 1.29.

B7: Nb 701C06 (VHH, not shown: small tags and cut ends)
VHH: EVQLVESGGGVVQPGGSLRLSCAASGRTFSTYAMGWFRQAPGKEREFVAAISRRGGRTYYADSVKGRFTISRDNSKNTVYLQMNSLRPEDTALYYCAADATARDGLLDYWGQGTLVTVSS
Take B7: the ELISA signal relative to background in [7] was 1.56; in assay [3], 1.41; in [8], 1.29; in [4], 1.5; in [1], 1.51; in assay [22], 1.74. Further, in [5], the ELISA signal relative to background worked out at 1.61.

Source of the values: US20210054097A1.
